Assay results taken from patent US20230034660A1, “PEPTIDES THAT ENHANCE NMDA RECEPTOR FUNCTION AND USE THEREOF” (University of Pittsburgh - Of the Commonwealth System of …, priority 2019, published 2023).
Blank lines part the entries; values can stand above or below the molecule they belong to.

How the values were obtained:
[1] = target: ZnT1 in mouse brain slices (mouse) (UniProt Q60738); test: cell-based or functional assay
NMDAR = NMDAR EPSCs in DCN cartwheel cells in brain slices, ZX1 potentiation; type: cell-based, mice; conditions: nimodipine 20 μM at least 20 minutes prior to recordings; ZX1 100 μM
GluN1/2A receptors = target: T1, GluN1/2A receptors (Rattus norvegicus, UniProt Q00959); test: Zinc inhibition of glutamate-evoked currents in tSA201 cells transfected with GluN1/GluN2A; type: cell-based; conditions: vehicle, 1 mM glutamate steady-state current, read-out: IC50 for zinc block in vehicle treated cells
T1 construct: expressed in transfected cells; host or cells: human embryonic kidney tSA201 cells
Method: Human embryonic kidney tSA201 cells were maintained in DMEM supplemented with 10% fetal bovine serum and 1% GlutaMAX, as previously described (Glasgow and Johnson, 2014). Cells were plated in 35 mm petri dishes with three 15 mm glass coverslips treated with poly D-lysine (0.1 mg/ml) and rat-tail collagen (0.1 mg/ml) at a density of 1×10^5 cells/dish. Eighteen to 30 hours after plating, the cells were co-transfected using FuGENE 6 Transfection Reagent with cDNA encoding enhanced green fluorescent protein (eGFP), for identification of transfected cells, and WT rat NMDAR subunits GluN1-1a (GluN1; GenBank X63255) and GluN2A (GenBank M91561 in pcDNA1). GluN1-1 a and eGFP were expressed using a specialized pCl-neo vector with cDNA encoding eGFP inserted between the CMV promoter and the GluN1 open reading frame (Yi et al., 2018). […]
Whole-cell voltage-clamp recordings from tSA201 cells were performed 18-30 hours after transfection. […] Whole-cell currents were recorded using an Axopatch 200A patch-clamp amplifier (Molecular Devices), low-pass filtered at 5 kHz, and sampled at 20 kHz in pClamp10.7 (Molecular Devices). In all recordings from tSA201 cells, series resistance was compensated 85-90% and an empirically determined −6 mV liquid junction potential between the intracellular pipette solution and the extracellular recording solution was corrected. […]

[2] = target: T2, GluN2A subunit of NMDAR in rat cortical cultures (rat, UniProt Q00959 23-1464); test: proximity ligation assay in rat cortical cultures (FIG. 3A legend)
T2 construct: whole, on cells; Endogenous protein in neurons, detected with a mouse anti-GluN2A antibody in the PLA
T2 sequence (Q00959 23-1464): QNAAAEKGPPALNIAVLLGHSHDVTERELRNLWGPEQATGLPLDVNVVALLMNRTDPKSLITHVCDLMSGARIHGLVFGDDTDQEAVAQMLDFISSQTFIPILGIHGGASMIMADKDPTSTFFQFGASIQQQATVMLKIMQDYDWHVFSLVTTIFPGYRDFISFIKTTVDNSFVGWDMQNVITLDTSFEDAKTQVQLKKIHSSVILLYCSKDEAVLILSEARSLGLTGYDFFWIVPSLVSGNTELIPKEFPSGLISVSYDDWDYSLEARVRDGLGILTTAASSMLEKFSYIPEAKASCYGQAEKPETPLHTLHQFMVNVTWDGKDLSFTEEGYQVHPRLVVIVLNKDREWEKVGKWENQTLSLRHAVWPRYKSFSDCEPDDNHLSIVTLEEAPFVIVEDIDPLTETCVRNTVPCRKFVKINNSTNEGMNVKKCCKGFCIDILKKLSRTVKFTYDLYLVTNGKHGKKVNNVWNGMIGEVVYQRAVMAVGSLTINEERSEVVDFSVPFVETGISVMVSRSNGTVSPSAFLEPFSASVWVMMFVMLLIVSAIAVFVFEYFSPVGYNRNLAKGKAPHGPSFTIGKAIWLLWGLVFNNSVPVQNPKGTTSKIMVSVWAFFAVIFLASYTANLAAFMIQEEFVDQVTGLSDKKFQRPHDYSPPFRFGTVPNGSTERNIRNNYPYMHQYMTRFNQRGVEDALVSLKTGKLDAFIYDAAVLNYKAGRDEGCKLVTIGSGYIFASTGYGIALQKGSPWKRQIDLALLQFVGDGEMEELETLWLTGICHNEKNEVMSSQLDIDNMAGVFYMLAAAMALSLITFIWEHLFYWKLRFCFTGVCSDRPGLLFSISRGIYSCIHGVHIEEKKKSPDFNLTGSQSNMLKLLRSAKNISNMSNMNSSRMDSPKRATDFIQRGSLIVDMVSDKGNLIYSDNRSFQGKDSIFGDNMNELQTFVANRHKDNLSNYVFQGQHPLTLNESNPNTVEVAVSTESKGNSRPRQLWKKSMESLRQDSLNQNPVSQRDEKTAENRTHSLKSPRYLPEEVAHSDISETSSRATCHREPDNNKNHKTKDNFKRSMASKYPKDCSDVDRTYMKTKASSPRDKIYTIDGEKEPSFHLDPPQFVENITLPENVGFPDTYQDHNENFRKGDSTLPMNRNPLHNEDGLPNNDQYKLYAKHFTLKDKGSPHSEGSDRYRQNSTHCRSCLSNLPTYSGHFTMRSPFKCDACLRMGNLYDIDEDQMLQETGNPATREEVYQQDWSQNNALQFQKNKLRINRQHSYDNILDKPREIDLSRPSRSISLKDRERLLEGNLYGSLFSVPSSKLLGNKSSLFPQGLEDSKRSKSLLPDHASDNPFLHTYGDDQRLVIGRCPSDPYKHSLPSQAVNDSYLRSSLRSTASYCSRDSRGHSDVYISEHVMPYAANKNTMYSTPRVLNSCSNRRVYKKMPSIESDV

T1 sequence (Q00959 23-1464, other chains not shown): as the sequence (Q00959 23-1464) above

Average effect of ZX1 on L2/3 PN NMDAR Lev-EPSCs amplitudes normalized to control, auditory cortex slices incubated with scramble [1]: 159%
Average effect of ZX1 on L2/3 PN NMDAR Lev-EPSCs amplitudes normalized to control, auditory cortex slices incubated with the peptide [1]: 99%
ZX1 potentiation of NMDAR EPSCs, DCN cartwheel cells, 100 Hz, slices treated with N2AZ [1]: 1.95%
ZX1 potentiation of NMDAR-mediated synaptic currents, DCN cartwheel cells, 20 Hz, slices treated with N2AZ (3 µM) [1]: 19.4%
ZX1 potentiation of NMDAR-mediated synaptic currents, DCN cartwheel cells, 20 Hz, slices treated with scN2AZ (3 µM) [1]: 47.3%
Molecule: GluN2A subunit of NMDAR in mouse brain slices (from UniProt P35436 23-1464) (receptor)

Molecule: COCCOC(=O)C1=C(C)NC(C)=C(C(=O)OC(C)C)C1c1cccc([N+](=O)[O-])c1 (centres unmarked) [Nimodipine, reference compound]
ZX1 potentiation of NMDAR EPSCs in nimodipine-treated slices (NMDAR): 23.6±6.9%

Molecule: [Zn+2] [zinc]
IC50 (GluN1/2A receptors): 21.8 ± 2.09 nM

binding result [2]: binds
B1: ZnT1 in rat cortical cultures (other, UniProt Q62720 1-507, looked up)
chain: MGCWGRNRGRLLCMLLLTFMFMVLEVVVSRVTASLAMLSDSFHMLSDVLALVVALVAERFARRTHATQKNTFGWIRAEVMGALVNAIFLTGLCFAILLEAVERFIEPHEMQQPLVVLSVGVAGLLVNVLGLCLFHHHSGEGQGAGHGHSHGHGHGHLAKGARKAGRAGGEAGAPPGRAPDQEPDQEETNTLVANTSNSNGLKADQAEPEKLRSDDPVDVQVNGNLIQESDSLESEDNRAGQLNMRGVFLHVLGDALGSVIVVVNALVFYFSWKGCTEDDFCVNPCFPDPCKSSVELMNSTQAPMHEAGPCWVLYLDPTLCIIMVCILLYTTYPLLKESALILLQTVPKQIDIKHLVKELRDVEGVEEVHELHVWQLAGSRIIATAHIKCEDPASYMQVAKTIKDVFHNHGIHATTIQPEFASVGSKSSVVPCELACRTQCALKQCCGTRPQVHSGKEAEKAPTVSISCLELSENLEKKPRRTKAEGSVPAVVIEIKNVPNKQPESSL
notes: whole, on cells; Endogenous protein in neurons, detected with a rabbit anti-ZnT1 antibody in the PLA; also called zinc transporter 1
